Test results from publication PMC4612324, “Comparing the efficacy and neuroinflammatory potential of three anti-abeta antibodies” (Acta Neuropathologica, 2015).

Molecular target: T1, Aβ 1-40 peptide (UniProt P05067 672-711)
T1 construct: amyloid beta peptide Aβ 1-40, cut product of the amyloid precursor protein (APP); the methods call it a bought peptide, the results a 'recombinant peptide'; also called recombinant peptide; immobilised Aβ; source: bought: America Peptide, Sunnyvale, CA
Experiment: ELISA; Aβ1-40 peptide coated on Maxisorp plates (0.1 µg/ml, bicarbonate buffer pH 9.6); antibodies serially diluted in PBS/1 % BSA, 1 h at room temperature; detected with biotinylated anti-mouse IgG and streptavidin poly-HRP; relative affinity
Conditions: both partners purified

B1: mC2 (murine parent antibody of Crenezumab), recombinant with mouse IgG2a constant region (antibody, V domains shown)
VH: EVQLVESGGGLVQPGGSLKLSCAASGFTFSSYGMSWVRQTPDKRLELVASINSNGGSTYYPDSVKGRFTISRDNAKNTLYLQMSSLKSEDTAMYYCASGDYWGQGSTLTVSS
VL: DVVMTQTPLSLPVSLGDQASISCRSSQSLVYSNGDTYLHWYLQKPGQSPKLLIYKVSNRFSGVPDRFSGSGSGTDFTLKISRVEAEDLGVYFCSQSTHVPWTFGGGTKLEIKR
notes: heavy chain variable domain of mC2; mouse IgG2a heavy chain constant domain; light chain variable domain of mC2; mouse kappa light chain constant domain; mouse IgG2a, kappa; variable domain joined directly to the constant domain (synthetic genes); also called murine version of Crenezumab; Crenezumab-mC2; source: HEK293 6E cells, transient transfection (pTT5), purified from culture media …
For B1, the EC50 was 0.0174 nM.
